Measured values from PMC9638028, “Yeast Smy2 and its human homologs GIGYF1 and -2 regulate Cdc48/VCP function during transcription stress” (Cell Reports, 2022).

Molecular target: T1, Cdc48-FLAG3 (S. cerevisiae, UniProt P25694 1-835)
T1 construct: Cdc48, S. cerevisiae; the results and the purification methods say it was purified from yeast; also called FLAG-tagged Cdc48; purified Cdc48; source: S. cerevisiae W303, expressed from the endogenous locus; in extract for the co-IP
Test: pull-down; GST, GST-GYF or GST-GAF on glutathione beads, 10-fold molar excess of Cdc48-Flag; 20 mM Tris pH 7.5, 200 mM NaCl, 0.05% Triton X-100, 15% glycerol, 75 ug/mL BSA; 2 h; western blot
Conditions: both partners purified

T1 sequence (P25694 whole entry): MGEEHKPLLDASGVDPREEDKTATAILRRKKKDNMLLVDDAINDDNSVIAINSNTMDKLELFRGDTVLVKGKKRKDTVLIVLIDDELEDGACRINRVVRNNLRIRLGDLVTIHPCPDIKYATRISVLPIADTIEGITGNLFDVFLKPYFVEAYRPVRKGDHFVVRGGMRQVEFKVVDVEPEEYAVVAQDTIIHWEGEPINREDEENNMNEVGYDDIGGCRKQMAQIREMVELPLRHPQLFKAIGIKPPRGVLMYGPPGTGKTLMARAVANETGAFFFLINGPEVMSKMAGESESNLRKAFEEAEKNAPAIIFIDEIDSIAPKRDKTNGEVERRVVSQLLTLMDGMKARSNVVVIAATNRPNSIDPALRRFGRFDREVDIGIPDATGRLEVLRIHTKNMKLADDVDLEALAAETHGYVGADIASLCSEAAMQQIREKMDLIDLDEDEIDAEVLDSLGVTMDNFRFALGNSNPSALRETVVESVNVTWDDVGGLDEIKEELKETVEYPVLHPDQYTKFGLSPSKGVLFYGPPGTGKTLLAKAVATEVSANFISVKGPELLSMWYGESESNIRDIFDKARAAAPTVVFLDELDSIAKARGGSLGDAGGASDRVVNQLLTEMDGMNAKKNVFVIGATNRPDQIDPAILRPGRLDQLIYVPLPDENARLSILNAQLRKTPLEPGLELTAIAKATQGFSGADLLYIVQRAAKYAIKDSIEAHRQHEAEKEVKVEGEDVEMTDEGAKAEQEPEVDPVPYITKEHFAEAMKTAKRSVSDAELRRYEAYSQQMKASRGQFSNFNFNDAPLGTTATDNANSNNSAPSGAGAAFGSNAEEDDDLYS

B1: GST-Smy2 (205-261), GYF (domain or fragment, S. cerevisiae, UniProt P32909 205-261, looked up)
chain: ESSWRYIDTQGQIHGPFTTQMMSQWYIGGYFASTLQISRLGSTPETLGINDIFITLG
notes: Smy2, S. cerevisiae, amino acids 205-261 holding the GYF motif; Vector pGST 6p-1 / pGEX 6p-1; also called GST-GYF; GST-Smy_(205-261); source: bacterial expression (E. coli), purified on glutathione agarose beads
B1: binds.

B2: GST-Smy2 (205-261) Y234A, GAF (domain or fragment, S. cerevisiae, UniProt P32909 205-261, looked up)
chain: ESSWRYIDTQGQIHGPFTTQMMSQWYIGGAFASTLQISRLGSTPETLGINDIFITLG
notes: Smy2, S. cerevisiae, amino acids 205-261 with the GYF motif changed to GAF; also called GST-GAF; mutated (GAF) version; source: bacterial expression (E. coli), purified on glutathione agarose beads
B2: binds.
